Holding throughout (assay): SPR, Fab over captured MICA*008.mIgG2a Ala variant; KD relative to wild type
In general terms: SPR reads the build-up and loss of mass on a sensor chip optically.

For one assay, the target named is T1, S287A.
T1 construct: % monomer 90.34; also called MICA*008.mIgG2a S287A
T1 chain: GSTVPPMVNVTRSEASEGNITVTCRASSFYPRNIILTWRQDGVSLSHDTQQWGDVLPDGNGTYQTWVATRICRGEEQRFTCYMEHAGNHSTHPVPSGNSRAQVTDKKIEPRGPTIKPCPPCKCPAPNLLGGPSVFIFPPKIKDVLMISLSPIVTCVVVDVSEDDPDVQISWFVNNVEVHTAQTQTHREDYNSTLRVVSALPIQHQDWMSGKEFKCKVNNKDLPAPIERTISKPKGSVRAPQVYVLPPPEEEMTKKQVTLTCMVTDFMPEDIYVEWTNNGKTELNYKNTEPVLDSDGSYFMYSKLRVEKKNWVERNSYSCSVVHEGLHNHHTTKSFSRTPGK

The target in the next assay is T2, P294A.
T2 construct: % monomer 89.16; also called MICA*008.mIgG2a P294A
T2 chain: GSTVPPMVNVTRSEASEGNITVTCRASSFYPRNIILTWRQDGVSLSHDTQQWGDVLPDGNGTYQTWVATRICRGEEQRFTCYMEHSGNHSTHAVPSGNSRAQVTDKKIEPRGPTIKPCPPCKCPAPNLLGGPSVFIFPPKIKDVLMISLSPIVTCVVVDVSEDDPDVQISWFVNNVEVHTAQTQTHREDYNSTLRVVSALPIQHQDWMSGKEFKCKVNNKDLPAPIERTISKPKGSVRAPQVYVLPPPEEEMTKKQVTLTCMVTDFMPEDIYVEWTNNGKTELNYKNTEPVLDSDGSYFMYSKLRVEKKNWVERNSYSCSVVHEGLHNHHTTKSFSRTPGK

In a further assay the target is T3, G288A.
T3 construct: % monomer 95.3; also called MICA*008.mIgG2a G288A
T3 chain: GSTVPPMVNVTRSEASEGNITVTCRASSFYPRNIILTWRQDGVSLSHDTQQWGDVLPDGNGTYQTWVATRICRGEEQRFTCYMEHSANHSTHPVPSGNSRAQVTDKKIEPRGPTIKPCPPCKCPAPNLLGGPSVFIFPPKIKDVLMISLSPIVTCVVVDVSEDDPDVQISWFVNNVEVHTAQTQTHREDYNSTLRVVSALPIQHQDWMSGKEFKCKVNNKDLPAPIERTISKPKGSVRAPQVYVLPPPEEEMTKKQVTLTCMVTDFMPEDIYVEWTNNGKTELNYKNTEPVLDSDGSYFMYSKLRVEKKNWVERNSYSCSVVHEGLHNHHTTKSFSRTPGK

The target in a further assay is T4, P296A.
T4 construct: % monomer 92.3; also called MICA*008.mIgG2a P296A
T4 chain: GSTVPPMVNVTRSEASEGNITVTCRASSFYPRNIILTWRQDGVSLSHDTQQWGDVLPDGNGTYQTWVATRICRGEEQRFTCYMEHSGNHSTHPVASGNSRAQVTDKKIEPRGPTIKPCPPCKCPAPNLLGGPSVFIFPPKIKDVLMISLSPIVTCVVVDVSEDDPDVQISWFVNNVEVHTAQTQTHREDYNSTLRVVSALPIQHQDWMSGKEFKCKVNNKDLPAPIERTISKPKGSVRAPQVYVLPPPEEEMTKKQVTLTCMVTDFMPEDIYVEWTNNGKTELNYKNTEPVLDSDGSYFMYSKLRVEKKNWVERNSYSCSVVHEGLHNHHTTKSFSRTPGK

In the next assay the target is T5, Q241A (Fc fusion, a disulfide-linked homodimer; one chain given.).
T5 construct: % monomer 97.6; also called MICA*008.mIgG2a Q241A
T5 chain: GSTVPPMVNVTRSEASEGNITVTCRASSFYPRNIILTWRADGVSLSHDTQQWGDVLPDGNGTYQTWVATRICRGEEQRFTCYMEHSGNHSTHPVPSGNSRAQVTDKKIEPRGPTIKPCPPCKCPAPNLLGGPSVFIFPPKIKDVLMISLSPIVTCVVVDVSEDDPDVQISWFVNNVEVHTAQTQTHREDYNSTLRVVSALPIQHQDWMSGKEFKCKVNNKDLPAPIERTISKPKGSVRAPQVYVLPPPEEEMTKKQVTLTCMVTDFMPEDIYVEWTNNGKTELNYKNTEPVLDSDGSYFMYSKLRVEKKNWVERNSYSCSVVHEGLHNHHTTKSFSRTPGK

Another assay addresses T6, Q278A.
T6 construct: % monomer 92.32; also called MICA*008.mIgG2a Q278A
T6 chain: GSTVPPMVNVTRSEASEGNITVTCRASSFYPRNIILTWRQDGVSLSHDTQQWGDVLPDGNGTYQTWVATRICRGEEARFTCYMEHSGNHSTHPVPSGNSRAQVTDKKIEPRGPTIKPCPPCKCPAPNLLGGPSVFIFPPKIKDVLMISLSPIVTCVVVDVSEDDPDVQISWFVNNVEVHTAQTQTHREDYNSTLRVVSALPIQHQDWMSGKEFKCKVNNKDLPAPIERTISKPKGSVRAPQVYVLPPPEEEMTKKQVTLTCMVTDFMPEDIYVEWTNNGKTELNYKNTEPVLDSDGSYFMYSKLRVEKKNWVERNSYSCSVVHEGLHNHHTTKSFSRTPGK

The target in another assay is T7, S291A.
T7 construct: % monomer 83.21; also called MICA*008.mIgG2a S291A
T7 chain: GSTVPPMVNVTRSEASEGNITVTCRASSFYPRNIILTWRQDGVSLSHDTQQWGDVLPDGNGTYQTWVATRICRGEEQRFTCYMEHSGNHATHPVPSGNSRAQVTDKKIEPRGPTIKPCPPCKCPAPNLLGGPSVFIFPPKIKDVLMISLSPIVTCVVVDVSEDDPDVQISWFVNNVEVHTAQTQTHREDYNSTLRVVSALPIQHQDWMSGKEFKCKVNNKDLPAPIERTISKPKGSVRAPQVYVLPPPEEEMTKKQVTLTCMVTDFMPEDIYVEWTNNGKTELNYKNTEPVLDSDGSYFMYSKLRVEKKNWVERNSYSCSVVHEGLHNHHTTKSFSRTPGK

B1: 6F8.7 Fab (Fab, V domains shown)
VH: DVQLQGSGPGLVKPSQSLSLTCSVTGYSITNDYYWNWIRQFPGNKLEWMGFISFGGSNNYNPSLKNRISITRDTSKNQFFLKLSSVTTEDTATYYCARYDGRGAWFAYWAQGTLVTVSA
VL: DIQMTQSPASLSASVGETVTITCRASGNIHNYLAWYQQKQGKSPQLLVYDAITLADGVPSRFSGSGSGTQYSLKINSLQPEDFGNYYCQHFWSFPLTFGAGTKVEIK
For B1, the fold-decrease in affinity with S287A stood at 1.1; with P294A, 0.9; with G288A, 1; in the assay with P296A, 1; with Q241A, 1.1; with Q278A, 0.5. For the same molecule, the fold-decrease in affinity with S291A is 2.7.

B2: 7D4.6 Fab (Fab, V domains shown)
VH: DVQLQESGPGLVKPSQSLSLTCTVTGYSITSDYAWNWIRQFPRNKLEWMGYINYSGTTNYNPSLKSRISITRDTSKNQFFLQLISVTTEDTATYYCSYYRYDGAWFPYWGQGTLVTVSA
VL: DIQMTQSPASLSASVGETVTITCRASGNIHNYLAWYQQKQGKSPQLLVYNAIMLADGVPSRFSASGSGTQYSLKINSLQPEDFGSYYCQHFWSFPLTFGAGTKVEIK
Regarding B2, the fold-decrease in affinity in the assay with S287A is 1.3; in the assay with P294A it was 1; with G288A, 0.8; with P296A it was 0.7; with Q241A it was 0.4; in the assay with Q278A it was 4.9. Moreover, the fold-decrease in affinity with S291A was 2.7.

B3: 2E5.2.3 Fab (Fab, V domains shown)
VH: QGQMQQSGAELVKPGASVKLSCKTSGFTFSDNYISWLKQKPGQSLEWIAWIYAGTGGTSYNQKFTAKAQLTVDTSSSTAYMQFSSLTTEDSAIYYCARHDYYGTSGAWFAYWGQGTLVTVSA
VL: DVLMTQTPLSLPVSLGDQASLSCRSSQNIVHINGNTYLEWYLQKPGQSPKLLIYKVSNRFSGVPDRFSGSGSGTDFTLKISRVEAEDLGVYYCFQGSHVPWTFGGGTKVEIK
As to B3, the fold-decrease in affinity in the assay with S287A is 1; in the assay with P294A, 1; in the assay with G288A it was 0.6; in the assay with P296A, 0.6; with Q241A it was 1.1; with Q278A, 1. The fold-decrease in affinity with S291A is 1.1.

B4: 1D5 Fab (Fab, V domains shown)
VH: EIQLQQSGPELVKPGASVKVSCKASGYAFTSQNIYWVKQSHGKSLEWIGYIEPYNVVPMYNPKFKGKATLTVDKSSSSAYIHLNSLTSEDSAIYYCARSGSSNFDYWGQGTTLTVSS
VL: EIILTQSPTTMAASPGEKITITCSASSSISSHYLHWYQQKSGFSPKLLIYRTSNLASGVPARFSGSGSGTSYSLTIGTMEAEDVATYYCQQGSSLPLTFGAGTKVEIK
notes: Expressed in E. coli as chimera of murine variable and human constant domains; not shown: human IgG1 CH1 constant domain; human kappa CL constant domain
As for B4, the fold-decrease in affinity in the assay with S287A was 4.9; in the assay with P294A, 1; with G288A, 1; in the assay with P296A, 1.9; with Q278A it was 0.7; with S291A, 1.1.

Values taken from patent US20200055939A1 (Genentech, published 2020).
